Test system: Escherichia coli TOP10
Experiment: shrunken log2 fold change of peptide-encoding DNA abundance (4.5 h post-induction vs induction); higher = less antimicrobial activity (less host growth inhibition)
Details: time post-induction: 4.5 h; library: site-saturation at positions 5, 18, 19, 20
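Note: peptides expressed intracellularly from a pBAD plasmid library in pooled LB shake-flask culture, induced with 0.3% L-arabinose, DNA abundance read by NGS, three biological replicates, DESeq2 with apeglm shrinkage.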

Sequence	shrunken log2 fold change
RRIRHRPPRLPRPRPRPWQRPRP	-0.1
RRIRIRPPRLPRPRPRPECFPRP	0.042
RRIRSRPPRLPRPRPRPPCHPRP	-0.0302
RRIRERPPRLPRPRPRPAGQPRP	-0.195
RRIRERPPRLPRPRPRPMGFPRP	0.0499
RRIRFRPPRLPRPRPRPLHGPRP	-0.216
RRIRLRPPRLPRPRPRPHIAPRP	-0.205
RRIRSRPPRLPRPRPRPGTVPRP	-0.0347
RRIRGRPPRLPRPRPRPWIWPRP	0.236
RRIRPRPPRLPRPRPRPSFTPRP	-0.213
RRIRCRPPRLPRPRPRPIHKPRP	-0.638
RRIRERPPRLPRPRPRPCRAPRP	-0.0474
RRIRNRPPRLPRPRPRPFCYPRP	0.166
RRIRQRPPRLPRPRPRPDMHPRP	0.161
RRIRQRPPRLPRPRPRPSSWPRP	-0.0176
RRIRNRPPRLPRPRPRPMRNPRP	0.115
RRIRMRPPRLPRPRPRPQPFPRP	0.211
RRIRRRPPRLPRPRPRPDILPRP	0.0906
RRIRGRPPRLPRPRPRPTDHPRP	0.335
RRIRTRPPRLPRPRPRPERKPRP	0.0268
RRIRKRPPRLPRPRPRPRTRPRP	0.618
RRIRHRPPRLPRPRPRPACAPRP	0.436
RRIRARPPRLPRPRPRPWETPRP	4.22

Sequence	shrunken log2 fold change
RRIRCRPPRLPRPRPRPIQTPRP	0.299
RRIRCRPPRLPRPRPRPVKEPRP	-0.0734
RRIRHRPPRLPRPRPRPLRPPRP	0.639
RRIRWRPPRLPRPRPRPWKPPRP	-0.732
RRIRVRPPRLPRPRPRPGFQPRP	0.302
RRIRLRPPRLPRPRPRPPPWPRP	0.892
RRIRHRPPRLPRPRPRPLAVPRP	0.0391
RRIRHRPPRLPRPRPRPGVMPRP	-0.0309
RRIRGRPPRLPRPRPRPLWAPRP	0.681
RRIRMRPPRLPRPRPRPNDWPRP	0.435
RRIRVRPPRLPRPRPRPSEWPRP	-0.0811
RRIRMRPPRLPRPRPRPNAEPRP	-0.0356
RRIRYRPPRLPRPRPRPQHWPRP	0.0376
RRIRIRPPRLPRPRPRPAMKPRP	-0.0563
RRIRARPPRLPRPRPRPEWAPRP	1.06
RRIRVRPPRLPRPRPRPVTPPRP	0.214
RRIRGRPPRLPRPRPRPCPFPRP	-0.218
RRIRFRPPRLPRPRPRPYTNPRP	-1.17
RRIRLRPPRLPRPRPRPAPFPRP	-0.0923
RRIRIRPPRLPRPRPRPFHPPRP	-0.111
RRIRDRPPRLPRPRPRPTIEPRP	0.324
RRIRMRPPRLPRPRPRPFWMPRP	0.154
RRIRMRPPRLPRPRPRPANDPRP	0.0988

Sequence	shrunken log2 fold change
RRIRYRPPRLPRPRPRPYSHPRP	-0.958
RRIRDRPPRLPRPRPRPRWHPRP	0.42
RRIRDRPPRLPRPRPRPQFDPRP	-0.0102
RRIRQRPPRLPRPRPRPIKSPRP	-0.117
RRIRFRPPRLPRPRPRPVYWPRP	-0.195
RRIRTRPPRLPRPRPRPWGKPRP	0.201
RRIRNRPPRLPRPRPRPDFHPRP	-0.441
RRIRCRPPRLPRPRPRPDVDPRP	0.0251
RRIRDRPPRLPRPRPRPFPFPRP	-0.163
RRIRMRPPRLPRPRPRPRMHPRP	0.118
RRIRYRPPRLPRPRPRPTLYPRP	-0.828
RRIRDRPPRLPRPRPRPSFQPRP	-0.0455
RRIRRRPPRLPRPRPRPCCQPRP	0.0136
RRIRARPPRLPRPRPRPGAWPRP	0.259
RRIRARPPRLPRPRPRPLYHPRP	0.149
RRIRSRPPRLPRPRPRPCYNPRP	-0.513
RRIRRRPPRLPRPRPRPVARPRP	0.896
RRIRYRPPRLPRPRPRPKTSPRP	-0.595
RRIRLRPPRLPRPRPRPGSRPRP	-0.183
RRIRIRPPRLPRPRPRPDGWPRP	-0.279
RRIRGRPPRLPRPRPRPCLAPRP	0.599
RRIRGRPPRLPRPRPRPEGWPRP	1.99
RRIRARPPRLPRPRPRPTFCPRP	0.386

Sequence	shrunken log2 fold change
RRIRYRPPRLPRPRPRPQCTPRP	-0.292
RRIRDRPPRLPRPRPRPHKKPRP	-0.00887
RRIRKRPPRLPRPRPRPTACPRP	0.108
RRIRARPPRLPRPRPRPAFSPRP	0.215
RRIRTRPPRLPRPRPRPRGIPRP	-0.0284
RRIRVRPPRLPRPRPRPFGGPRP	-0.216
RRIRERPPRLPRPRPRPQWMPRP	0.0273
RRIRHRPPRLPRPRPRPNENPRP	-0.579
RRIRGRPPRLPRPRPRPSRKPRP	0.293
RRIRTRPPRLPRPRPRPIDGPRP	0.0685
RRIRERPPRLPRPRPRPTAFPRP	-0.16
RRIRDRPPRLPRPRPRPFILPRP	-0.293
RRIRERPPRLPRPRPRPLLYPRP	-0.309
RRIRPRPPRLPRPRPRPAEQPRP	0.411
RRIRERPPRLPRPRPRPKCNPRP	0.0249
RRIRQRPPRLPRPRPRPNFGPRP	-0.0871
RRIRERPPRLPRPRPRPCVTPRP	-0.322
RRIRVRPPRLPRPRPRPTGDPRP	-0.0504
RRIRQRPPRLPRPRPRPKWDPRP	-0.0672
RRIRWRPPRLPRPRPRPNTNPRP	-0.294
RRIRSRPPRLPRPRPRPNCNPRP	-0.473
RRIRGRPPRLPRPRPRPKTCPRP	0.206

From the supplement of paper PMC9112550, “Optimization of the antimicrobial peptide Bac7 by deep mutational scanning” (BMC Biology, 2022)
